Experimental findings from publication PMC4770092, “Subnanometre enzyme mechanics probed by single-molecule force spectroscopy” (Nature Communications, 2016) are described below.

Experiment in all cases: coupled spectrophotometric assay
Format in all cases: biochemical, Aquifex aeolicus

Substrate in data set [1]: Nc1ncnc2c1ncn2[C@@H]1O[C@H](COP(=O)(O)O)[C@@H](O)[C@H]1O
Substrate in data set [2]: Nc1ncnc2c1ncn2[C@@H]1O[C@H](COP(=O)(O)OP(=O)(O)O)[C@@H](O)[C@H]1O
As to conditions: Mg-ADP/ADP.

Substrate in data set [3]: Nc1ncnc2c1ncn2[C@@H]1O[C@H](COP(=O)(O)OP(=O)(O)OP(=O)(O)O)[C@@H](O)[C@H]1O

B1: AdK 42-144 (Aquifex aeolicus VF5; INS144C/INS42C) (protein)
chain: MILVFLGPPGAGKGTQAKRLAKEKGFVHISTGDILREAVQKGCTPLGKKAKEYMERGELVPDDLIIALIEEVFPKHGNVIFDGFPRTVKQAEALDEMLEKKGLKVDHVLLFEVPDEVVIERLSGRRINPETGEVYHVKYNPPPPGCVKVIQREDDKPEVIKKRLEVYREQTAPLIEYYKKKGILRIIDASKPVEEVYRQVLEVIGDGN
notes: full length, Cys inserted between 42/43 and 144/145; N-terminal spacer …, C-terminal spacer and His6 kept; synthetic gene in pET11a, E. coli BL21(DE3); DNA handles on Cys in trap assay
The term Km denotes the concentration of substrate that gives half-maximal velocity. As to B1, the values for the Michaelis-Menten constant (Km) in data set [1], in data set [2] and in data set [3] were 10 µM, 360 ± 80 µM and 41 ± 11 µM, respectively.
